Experiments:
Assay in all cases: EMSA
Details in all cases: EMSA: 10 mM Tris pH 7.5, 50 mM KCl, 1 mM EDTA, 1 mM DTT, 5% glycerol, 100 ug/mL BSA, 5 ug/mL poly(dI-dC), 0.25 nM probe, 25 C; footprinting: 10 mM Tris pH 8.0 …
[1] = molecular target: T1, Vfr;His6-AlgR (Pseudomonas aeruginosa;Pseudomonas aeruginosa PAK) (UniProt P55222+P26275)
T1 sequence 1: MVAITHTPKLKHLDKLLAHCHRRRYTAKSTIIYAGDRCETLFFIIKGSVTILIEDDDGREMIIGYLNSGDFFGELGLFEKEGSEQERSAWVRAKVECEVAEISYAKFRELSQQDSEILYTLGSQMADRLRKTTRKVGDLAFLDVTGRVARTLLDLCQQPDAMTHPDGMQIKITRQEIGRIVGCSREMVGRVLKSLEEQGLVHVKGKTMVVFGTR
T1 sequence 2: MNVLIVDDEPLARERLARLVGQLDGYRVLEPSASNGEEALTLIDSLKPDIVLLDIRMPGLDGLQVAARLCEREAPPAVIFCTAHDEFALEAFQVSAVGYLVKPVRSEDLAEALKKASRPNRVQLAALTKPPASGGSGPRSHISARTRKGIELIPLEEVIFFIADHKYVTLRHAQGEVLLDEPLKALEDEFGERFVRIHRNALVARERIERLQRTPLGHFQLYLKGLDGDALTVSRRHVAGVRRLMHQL

[2] = molecular target: T2, Vfr (Pseudomonas aeruginosa) (UniProt P55222)
T2 sequence: T1 sequence 1

[3] = molecular target: T3, His6-AlgR (Pseudomonas aeruginosa PAK) (UniProt P26275)
T3 sequence: T1 sequence 2

[4] = system: His6-AlgR (Pseudomonas aeruginosa PAK)

Substance	binding [2]	also measured
GCATACCGTTGCCTGGCAACTGATCCTCAACCGGCAGGGCCGGCTCCGTACCGCGAGCGCCAGGGAGAACCGGGAGAAACGTGAGCTATGCAGCACTTCCGGATGATCATGGACCAGTTGTCCTGCCCCACGGGCCGACCGTCAACGACCGCAAGACGCTCCCAGGCCCGTTTGGCATGCTTTCCAGGCGTAGAC (double strand) [PfimU WT]	binds	binding [1]: binds; binding [3]: binds
GTACGGGCGAAATAAAGCACCGAAATGCCATCTGCCGCAAAAAACCGCGAAACAGCGCTCGTTCCGGCTTCGTCGACGAGCCGCCGGTTTTTCCTCCCGGCCAGTAATCATCGTTGCCCTTTGCCCGTCACGCAGGCCGCGCG (double strand) [PalgZ VBS1 mutant]	binds more weakly	–
GTACGGGCGAAATAAAGCACCGAAATGTCATCTGCCAAATCAAACCACAGAACAGCGATACTTCCGGCTTCGTCGACGAGCCGCCGGTTTTTCCTCCCGGCCAGTAATCATCGTTGCCCTTTGCCCGTCACGCAGGCCGCGCG (double strand) [PalgZ VBS1-2-3 mutant]	no binding	–
GTACGGGCGAAATAAAGCACCGAAATGTCATCTGCCAAATCAAACCACAGAACAGCGATACTTCCGGCTTCGTCGACGAGCCGCCGGTTTTTCCTCCCGGCCTGCTATCATCGTCGCACTTTGCCCGTCACGCAGGCCGCGCG (double strand) [PalgZ VBS2-3 mutant]	binds more weakly	–
GTACGGGCGAAATAAAGCACCGAAATGTCATCTGCCAAATCAAACCGCGAAACAGCGCTCGTTCCGGCTTCGTCGACGAGCCGCCGGTTTTTCCTCCCGGCCAGTAATCATCGTTGCCCTTTGCCCGTCACGCAGGCCGCGCG (double strand) [PalgZ VBS1-3 mutant (VBS1 and VBS3)]	binds more weakly	–
GTACGGGCGAAATAAAGCACCGAAATGTCATCTGCCAAATCAAACCGCGAAACAGCGCTCGTTCCGGCTTCGTCGACGAGCCGCCGGTTTTTCCTCCCGGCCTGCTATCATCGTCGCACTTTGCCCGTCACGCAGGCCGCGCG (double strand) [PalgZ VBS3 mutant]	binds	–
PfimU WT	–	K half [4]: > 351 nM
